The values below come from patent publication CN111690063A (UNIV BEIJING, dated 2020).

By Kd is commonly meant the free concentration of one partner at which half of the binding sites on the other are occupied at equilibrium, for simple one-to-one binding.

Assay [1] addresses T1, 粒细胞-巨噬细胞集落刺激因子 (human granulocyte-macrophage colony-stimulating factor, GM-CSF) (human, UniProt P04141 18-144).
T1 construct: also called GM-CSF蛋白
Put plainly: Biolayer interferometry type assay: GM-CSF loaded on SA sensor, nanobody at 1000, 500 and 250 nmol, 30℃. In general terms: BLI is a label-free optical method that tracks binding on a fibre tip over time.

Assay [2] has as its target T1, 粒细胞-巨噬细胞集落刺激因子 (human …). Put plainly: Not stated at this place (summary of advantages); conflicts with the value in Example 4.

T1 sequence (P04141 18-144 limits assumed): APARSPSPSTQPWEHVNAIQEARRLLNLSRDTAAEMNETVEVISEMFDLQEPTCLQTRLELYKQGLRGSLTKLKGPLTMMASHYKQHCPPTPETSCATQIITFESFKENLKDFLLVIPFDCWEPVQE

B1: 抗GM-CSF纳米抗体G1 (VHH)
VHH: QLQLVESGGGLVQAGGSLRLSCAVSGRPSNVYDMGWFRRVPGKESRLMAYINWSRGSTYYADSVKGRFTISRDNTNNTVYLQMNSLKPEDTAVYYCAARAGPGTPAYNSWGQGTQVTVSS
notes: Alpaca VHH picked from an immune phage library
As for B1, the figures for the Kd with 粒细胞-巨噬细胞集落刺激因子 (human …) [1] and in the assay with 粒细胞-巨噬细胞集落刺激因子 (human …) [2] were 93.7 nM and 29.5 nM, respectively.
